Measurements from patent US20150239980A1 (NEOTOPE BOSCIENCES, published 2015).

B1: human MCAM (melanoma cell adhesion molecule) expressed on transfected CHO cells (receptor)
chain: VPGEAEQPAPELVEVEVGSTALLKCGLSQSQGNLSHVDWFSVHKEKRTLIFRVRQGQGQSEPGEYEQRLSLQDRGATLALTQVTPQDERIFLCQGKRPRSQEYRIQLRVYKAPEEPNIQVNPLGIPVNSKEPEEVATCVGRNGYPIPQVIWYKNGRPLKEEKNRVHIQSSQTVESSGLYTLQSILKAQLVKEDKDAQFYCELNYRLPSGNHMKESREVTVPVFYPTEKVWLEVEPVGMLKEGDRVEIRCLADGNPPPHFSISKGNPSTREAEEETTNDNGVLVLEPARKEHSGRYECQAWNLDTMISLLSEPQELLVNYVSDVRVSPAAPERQEGSSLTLTCEAESSQDLEFQWLREETDQVLERGPVLQLHDLKREAGGGYRCVASVPSIPGLNRTQLVKLAIFGPPWMAFKERKVWVKENMVLNLSCEASGHPRPTISWNVNGTASEGDQDPQRVLSTLNVLVTPELLETGVECTASNDLGKNTSILFLELVNLTTLTPDSNTTTGLSTSTASPHTRANSTSTERKLPEPESRGVVIVAVIVCILVLAVLGAVLYFLYKKGKLPCRRSGKQEITLPPSRKTELVVEVKSDKLPEEMGLLQGSSGDKRAPGDQGEKYIDLRH
notes: also called hMCAM; CD146
B2: Recombinant human laminin-α4 (R&D systems) (ligand, UniProt Q16363-2 826-1816, looked up)
chain: QVSMMFDGQSAVEVHSRTSMDDLKAFTSLSLYMKPPVKRPELTETADQFILYLGSKNAKKEYMGLAIKNDNLVYVYNLGTKDVEIPLDSKPVSSWPAYFSIVKIERVGKHGKVFLTVPSLSSTAEEKFIKKGEFSGDDSLLDLDPEDTVFYVGGVPSNFKLPTSLNLPGFVGCLELATLNNDVISLYNFKHIYNMDPSTSVPCARDKLAFTQSRAASYFFDGSGYAVVRDITRRGKFGQVTRFDIEVRTPADNGLILLMVNGSMFFRLEMRNGYLHVFYDFGFSGGPVHLEDTLKKAQINDAKYHEISIIYHNDKKMILVVDRRHVKSMDNEKMKIPFTDIYIGGAPPEILQSRALRAHLPLDINFRGCMKGFQFQKKDFNLLEQTETLGVGYGCPEDSLISRRAYFNGQSFIASIQKISFFDGFEGGFNFRTLQPNGLLFYYASGSDVFSISLDNGTVIMDVKGIKVQSVDKQYNDGLSHFVISSVSPTRYELIVDKSRVGSKNPTKGKIEQTQASEKKFYFGGSPISAQYANFTGCISNAYFTRVDRDVEVEDFQRYTEKVHTSLYECPIESSPLFLLHKKGKNLSKPKASQNKKGGKSKDAPSWDPVALKLPERNTPRNSHCHLSNSPRAIEHAYQYGGTANSRQEFEHLKGDFGAKSQFSIRLRTRSSHGMIFYVSDQEENDFMTLFLAHGRLVYMFNVGHKKLKIRSQEKYNDGLWHDVIFIRERSSGRLVIDGLRVLEESLPPTEATWKIKGPIYLGGVAPGKAVKNVQINSIYSFSGCLSNLQLNGASITSASQTFSVTPCFEGPMETGTYFSTEGGYVVLDESFNIGLKFEIAFEVRPRSSSGTLVHGHSVNGEYLNVHMKNGQVIVKVNNGIRDFSTSVTPKQSLCDGRWHRITVIRDSNVVQLDVDSEVNHVVGPLNPKPIDHREPVFVGGVPESLLTPRLAPSKPFTGCIRHFVIDGHPVSFSKAALVSGAVSINSCPAA
notes: also called laminin α-4 chain

Legend:
[1] = biological target: T1, recombinant human laminin 511 (Biolamina) (human, UniProt O15230 36-3695; P07942 22-1786; P11047 34-1609); experiment: flow cytometry, human MCAM CHO cells, pan-laminin antibody
T1 construct: negative control; also called laminin 10 (α5β1γ1)

[2] = biological target: T2, recombinant human IgG1 Fc (R&D systems) (human, UniProt P01857-1 100-330 = IgG part); experiment: SPR, Biacore T200
T2 construct: domain: Fc; negative control surface; also called hIgG1-Fc

Row | binding result [1] | binding result [2] | Binder
1 | no binding (tested: 10 µg/ml) |  | B1
2 |  | no binding (tested: 5-175 nM) | B2
